Blank lines part the entries; values can stand above or below the molecule they belong to.
How the values were obtained:
[1] = target: His10-ΔN46-B4GALNT1 (human B4GALNT1 lumenal domain construct ΔN46) (human) (UniProt Q00973); assay: non-reducing SDS-PAGE; purified protein in SDS loading dye without or with 50 mM DTT, heated 5 min at 95 °C, NuPAGE 4-12% Bis-Tris gel, Coomassie stain; dimer seen without reducing agent
[2] = target: the molecule itself; assay: as above

stoichiometry N [1]: 2
Molecule: His10-ΔN46-B4GALNT1 (human B4GALNT1 lumenal domain construct ΔN46) (from UniProt Q00973 47-533) (domain or fragment)

B1: B4GALNT1 lumenal domain construct ΔN27 (entire lumenal domain, human) (domain or fragment)
chain: HHHHHHHHHHGTRDAPGLRLPLAPWAPPQSPRRPELPDLAPEPRYAHIPVRIKEQVVGLLAWNNCSCESSGGGLPLPFQKQVRAIDLTKAFDPAELRAASATREQEFQAFLSRSQSPADQLLIAPANSPLQYPLQGVEVQPLRSILVPGLSLQAASGQEVYQVNLTASLGTWDVAGEVTGVTLTGEGQADLTLVSPGLDQLNRQLQLVTYSSRSYQTNTADTVRFSTEGHEAAFTIRIRHPPNPRLYPPGSLPQGAQYNISALVTIATKTFLRYDRLRALITSIRRFYPTVTVVIADDSDKPERVSGPYVEHYLMPFGKGWFAGRNLAVSQVTTKYVLWVDDDFVFTARTRLERLVDVLERTPLDLVGGAVREISGFATTYRQLLSVEPGAPGLGNCLRQRRGFHHELVGFPGCVVTDGVVNFFLARTDKVREVGFDPRLSRVAHLEFFLDGLGSLRVGSCSDVVVDHASKLKLPWTSRDAGAETYARYRYPGSLDESQMAKHRLLFFKHRLQCMTSQ
modifications: N-linked glycosylation (3 predicted sites, positions not given)
stoichiometry N [2]: 2

Source: paper PMC12217166, “Conformational dynamics and membrane insertion mechanism of B4GALNT1 in ganglioside synthesis” (Nature Communications, 2025)
